Assay results from paper doi:10.1101/2020.11.26.395038 (bioRxiv, 2020).
Positions count from the first letter of the chain named. One block for each binder: values may come before it.

Biological target: mitogen-activated protein kinase p38α (residues 2-349) (human, UniProt Q16539 2-349)
Test: ITC

mitogen-activated protein kinase p38α (residues 2-349), sequence (Q16539 2-349): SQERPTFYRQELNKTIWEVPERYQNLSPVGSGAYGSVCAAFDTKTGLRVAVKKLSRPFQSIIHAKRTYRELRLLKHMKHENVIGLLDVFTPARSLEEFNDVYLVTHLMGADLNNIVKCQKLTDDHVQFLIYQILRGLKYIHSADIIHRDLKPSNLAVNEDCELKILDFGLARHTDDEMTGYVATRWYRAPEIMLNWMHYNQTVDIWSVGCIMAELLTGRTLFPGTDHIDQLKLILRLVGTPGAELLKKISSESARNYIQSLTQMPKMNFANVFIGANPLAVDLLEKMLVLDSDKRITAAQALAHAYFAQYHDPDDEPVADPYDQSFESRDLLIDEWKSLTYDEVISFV

Kd: 7 ± 2 µM
B1: MKK6KIM peptide (peptide)
peptide: SQSKGKKRNPGLKIPKEAF

Kd: 2 ± 0.1 µM
B2: full-length MKK6 (residues 1-334) (enzyme, UniProt P52564 1-334, looked up)
chain: MSQSKGKKRNPGLKIPKEAFEQPQTSSTPPRDLDSKACISIGNQNFEVKADDLEPIMELGRGAYGVVEKMRHVPSGQIMAVKRIRATVNSQEQKRLLMDLDISMRTVDCPFTVTFYGALFREGDVWICMELMDTSLDKFYKQVIDKGQTIPEDILGKIAVSIVKALEHLHSKLSVIHRDVKPSNVLINALGQVKMCDFGISGYLVDSVAKTIDAGCKPYMAPERINPELNQKGYSVKSDIWSLGITMIELAILRFPYDSWGTPFQQLKQVVEEPSPQLPADKFSAEFVDFTSQCLKKNSKERPTYPELMQHPFFTLHESKGTDVASFVKLILGD

Kd: 3.5 ± 1.4 µM
B3: constitutively active MKK6 variant MKK6_(1-334)^S207ET211E (enzyme, UniProt P52564 1-334, looked up)
chain: B2 chain with S207E, T211E
